The results in this text go back to paper PMC12098869, “An mRNA-display derived cyclic peptide scaffold reveals the substrate binding interactions of an N-terminal cysteine oxidase” (Nature Communications, 2025).

The target of the test is T1, ADO-F101A, N-terminally His-tagged and biotinylated (human, UniProt Q96SZ5 1-270, F101A, biotin (biotinylated during expression)).
T1 construct: 2-aminoethanethiol dioxygenase (ADO), human, UniProt Q96SZ5, full length, site-directed mutant; source: E. coli Rosetta2(DE3), purified (Ni-NTA, SEC); not shown: biotinylation tag (from the vector pQE80L-Navi), N-terminal, kept
T1 sequence (looked up): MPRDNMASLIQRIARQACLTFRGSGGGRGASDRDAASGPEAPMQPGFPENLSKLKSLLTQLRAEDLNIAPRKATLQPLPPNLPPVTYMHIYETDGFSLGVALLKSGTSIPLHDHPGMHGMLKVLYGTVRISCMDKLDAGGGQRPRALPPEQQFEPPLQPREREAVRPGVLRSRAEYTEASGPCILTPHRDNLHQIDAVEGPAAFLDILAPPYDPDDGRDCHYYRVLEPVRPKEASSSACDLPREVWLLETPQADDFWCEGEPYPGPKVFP
Briefly: SPR; biotinylated ADO or ADO mutant immobilised on a Biotin CAP chip (~2500-3000 RU), substrate peptide injected; Biacore T200, 4 °C; 20 mM HEPES pH 7.5, 500 mM NaCl, 10 mM DTT, 0.1% tween-20; 50 µL/minute; multi-cycle or single-cycle mode not given; each cell is one of three independent measurements. The conditions noted are these: both partners purified. In general terms: Surface plasmon resonance follows binding to a sensor surface in real time, without labels.

Values joined by “and” are separate entries in the source; they are usually repeats but may differ in a detail not shown here. Equal values may be shown once.

B1: RGS5(2-15), synthetic peptide corresponding to the methionine excised N-terminus of RGS5, residues 2 to 15 (peptide, UniProt O15539 2-15, looked up)
peptide: CKGLAALPHSCLER
notes: regulator of G-protein signalling 5 (RGS5), residues 2 to 15 (N-terminal Cys exposed); UniProt O15539 is printed for the full-length human protein; also called 14-mer RGS5; source: synthetic peptide
Turning to B1, the Kd (in general, a measure of binding affinity in units of concentration) was 42.7 µM and 46.3 µM and 52.3 µM.
